Laboratory results as given in US20070203325A1 (published 2007).

Assays:
GST-Impα (Rch1) = GST-Impα (Rch1) (human, UniProt P52292 1-529); test: GST pull-down of in vitro translated 35S-labelled protein (0.25% NP40), autoradiography
GST-impβ = biological target: T1, GST-impβ (UniProt Q14974 1-876); test: as above
T1 construct: also called Imps
T1 sequence (Q14974 whole entry): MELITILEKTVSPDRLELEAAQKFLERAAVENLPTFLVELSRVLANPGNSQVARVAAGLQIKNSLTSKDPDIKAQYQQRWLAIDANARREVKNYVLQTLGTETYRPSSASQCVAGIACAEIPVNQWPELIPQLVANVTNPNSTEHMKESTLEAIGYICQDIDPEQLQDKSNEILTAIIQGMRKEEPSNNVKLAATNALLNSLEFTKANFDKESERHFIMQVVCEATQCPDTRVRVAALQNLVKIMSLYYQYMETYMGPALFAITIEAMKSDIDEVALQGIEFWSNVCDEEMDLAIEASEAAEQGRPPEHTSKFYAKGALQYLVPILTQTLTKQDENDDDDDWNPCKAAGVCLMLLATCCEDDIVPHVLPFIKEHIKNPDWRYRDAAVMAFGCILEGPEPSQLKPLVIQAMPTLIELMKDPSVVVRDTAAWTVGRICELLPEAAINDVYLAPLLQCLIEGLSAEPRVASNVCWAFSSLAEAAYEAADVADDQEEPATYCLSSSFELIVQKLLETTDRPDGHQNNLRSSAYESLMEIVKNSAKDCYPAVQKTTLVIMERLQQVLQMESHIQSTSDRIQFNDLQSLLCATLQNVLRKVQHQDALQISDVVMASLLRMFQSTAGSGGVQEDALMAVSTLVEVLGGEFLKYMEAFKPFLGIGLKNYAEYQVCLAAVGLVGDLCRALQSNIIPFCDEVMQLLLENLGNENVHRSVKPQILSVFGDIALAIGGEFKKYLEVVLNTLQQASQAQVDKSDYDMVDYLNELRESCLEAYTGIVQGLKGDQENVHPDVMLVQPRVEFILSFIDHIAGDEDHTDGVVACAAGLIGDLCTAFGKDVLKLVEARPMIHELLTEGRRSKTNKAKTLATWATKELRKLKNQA

B1: T7-CAT (enzyme)
chain: MEKKITGYTTVDISQWHRKEHFEAFQSVAQCTYNQTVQLDITAFLKTVKKNKHKFYPAFIHILARLMNAHPEFRMAMKDGELVIWDSVHPCYTVFHEQTETFSSLWSEYHDDFRQFLHIYSQDVACYGENLAYFPKGFIENMFFVSANPWVSFTSFDLNVANMDNFFAPVFTMGKYYTQGDKVLMPLAIQVHHAVCDGFHVGRMLNELQQYCDEWQGGA
binding result (GST-Impα (Rch1)): no binding
binding result (GST-impβ): no binding
